Experimental data: patent US4990453A, “Modified pseudomonas putida creatine amidinohydrolase” (Boehringer Mannheim GmbH, priority 1987, dated 1991)

Assays:
[1] = substrate: CN(CC(=O)O)C(=N)N; experiment: purified protein, by the assay type; details: other: 37° C., 0.1 mole/liter Tris-HCl (pH 8.0), optimum test conditions, wild type enzyme
[2] = substrate: CN(CC(=O)O)C(=N)N; experiment: purified protein, by the assay type; type: biochemical, Pseudomonas putida; details: other: 37° C., 0.1 mole/liter Tris-HCl (pH 8.0), optimum test conditions, mutant 109 = Val
Source text: (optimum test conditions)

B1: Pseudomonas putida creatine amidinohydrolase, wild type, from Escherichia coli DSM 3143 (pBT 2a-1, DSM 3148P) (Pseudomonas putida) (protein)
chain: MQMPKTLRIRNGDKVRSTFSAQEYANRQARLRAHLAAENIDAAIFTSYHNINYYSDFLYCSFGRPYALVVTEDDVISISANIDGGQPWRRTVGTDNIVYTDWQRDNYFAAIQQALPKARRIGIEHDHLNLQNRDKLAARYPDAELVDVAAACMRMRMIKSAEEHVMIRHGARIADIGGAAVVEALGDQVPEYEVALHATQAMVRAIADTFEDVELMDTWTWFQSGINTDGAHNPVTTRKVNKGDILSLNCFPMIAGYYTALERTLFLDHCSDDHLRLWQVNVEVHEAGLKLIKPGARCSDIARELNEIFLKHDVLQYRTFGYGHSFGTLSHYYGREAGLELREDIDTVLEPGMVVSMEPMIMLPEGLPGAGGYREHDILIVNENGAENITKFPYGPEKNIIRK
Km [1]: 25 mM

B2: Pseudomonas putida creatine amidinohydrolase mutant (Ala109Val and Val355Met), from Escherichia coli DSM 4106 (pBT 119, DSM 4107P) (Pseudomonas putida; … (protein)
chain: MQMPKTLRIRNGDKVRSTFSAQEYANRQARLRAHLAAENIDAAIFTSYHNINYYSDFLYCSFGRPYALVVTEDDVISISANIDGGQPWRRTVGTDNIVYTDWQRDNYFVAIQQALPKARRIGIEHDHLNLQNRDKLAARYPDAELVDVAAACMRMRMIKSAEEHVMIRHGARIADIGGAAVVEALGDQVPEYEVALHATQAMVRAIADTFEDVELMDTWTWFQSGINTDGAHNPVTTRKVNKGDILSLNCFPMIAGYYTALERTLFLDHCSDDHLRLWQVNVEVHEAGLKLIKPGARCSDIARELNEIFLKHDVLQYRTFGYGHSFGTLSHYYGREAGLELREDIDTVLEPGMVMSMEPMIMLPEGLPGAGGYREHDILIVNENGAENITKFPYGPEKNIIRK
notes: made in house; host or cells: Escherichia coli DSM 4106 (plasmid pBT 119, DSM 4107P)
Km ([2]; 355 = Met): 16 mM

B3: Pseudomonas putida creatine amidinohydrolase mutant (amino acid 109 = Val; Ala109Val), from Escherichia coli DSM 4105 (pBT 109, DSM 4108P) (Pseudomonas putida; … (protein)
chain: MQMPKTLRIRNGDKVRSTFSAQEYANRQARLRAHLAAENIDAAIFTSYHNINYYSDFLYCSFGRPYALVVTEDDVISISANIDGGQPWRRTVGTDNIVYTDWQRDNYFVAIQQALPKARRIGIEHDHLNLQNRDKLAARYPDAELVDVAAACMRMRMIKSAEEHVMIRHGARIADIGGAAVVEALGDQVPEYEVALHATQAMVRAIADTFEDVELMDTWTWFQSGINTDGAHNPVTTRKVNKGDILSLNCFPMIAGYYTALERTLFLDHCSDDHLRLWQVNVEVHEAGLKLIKPGARCSDIARELNEIFLKHDVLQYRTFGYGHSFGTLSHYYGREAGLELREDIDTVLEPGMVVSMEPMIMLPEGLPGAGGYREHDILIVNENGAENITKFPYGPEKNIIRK
notes: made in house; host or cells: Escherichia coli DSM 4105 (plasmid pBT 109, DSM 4108P)
Km [2]: 20 mM
